Test results taken from patent publication US20170342107A1.

Legend:
[1] = target: mouse melanocortin-4 receptor (mouse) (UniProt P56450); assay: 125I-NDP-MSH competitive displacement, HEK293 cells stably expressing mMC4R
[2] = target: mouse melanocortin-4 receptor (mouse) (UniProt P56450); assay: 125I-NDP-MSH competitive displacement, HEK293 cells stably expressing mMC4R; negative = more potent than control
[3] = target: mouse melanocortin-3 receptor (mouse) (UniProt P33033); assay: 125I-NDP-MSH competitive displacement, HEK293 cells stably expressing mMC3R; negative = more potent than control
[4] = target: mouse melanocortin-3 receptor (mouse) (UniProt P33033); assay: 125I-NDP-MSH competitive displacement, HEK293 cells stably expressing mMC3R
[5] = target: mouse melanocortin-3 receptor (mouse) (UniProt P33033); assay: cell-based or functional assay
[6] = target: mouse melanocortin-4 receptor (mouse) (UniProt P56450); assay: cell-based or functional assay
[7] = target: mouse melanocortin-4 receptor (mouse) (UniProt P56450); assay: 125I-NDP-MSH competitive displacement, HEK293 cells stably expressing mMC4R; here negative = weaker binder than SKY4-48-1

Chain of mouse melanocortin-3 receptor (mouse) (P33033 whole entry): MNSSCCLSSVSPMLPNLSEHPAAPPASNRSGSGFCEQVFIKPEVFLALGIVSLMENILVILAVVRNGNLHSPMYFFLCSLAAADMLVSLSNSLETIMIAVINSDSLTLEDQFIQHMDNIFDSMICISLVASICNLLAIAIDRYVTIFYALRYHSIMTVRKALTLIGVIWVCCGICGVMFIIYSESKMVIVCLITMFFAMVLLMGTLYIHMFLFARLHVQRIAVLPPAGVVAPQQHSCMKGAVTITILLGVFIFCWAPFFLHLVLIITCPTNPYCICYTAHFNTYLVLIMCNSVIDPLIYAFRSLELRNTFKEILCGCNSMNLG
Chain of mouse melanocortin-4 receptor (mouse) (P56450 whole entry): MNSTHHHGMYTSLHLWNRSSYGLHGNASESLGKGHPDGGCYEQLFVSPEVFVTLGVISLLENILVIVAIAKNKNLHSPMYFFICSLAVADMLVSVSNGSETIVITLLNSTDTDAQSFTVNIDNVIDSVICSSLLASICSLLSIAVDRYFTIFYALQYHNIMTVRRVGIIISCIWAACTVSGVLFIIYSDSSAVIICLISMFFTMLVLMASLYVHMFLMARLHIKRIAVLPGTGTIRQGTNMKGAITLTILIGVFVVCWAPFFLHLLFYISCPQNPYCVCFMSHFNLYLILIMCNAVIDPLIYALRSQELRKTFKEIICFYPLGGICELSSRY

Row | Substance | IC50 [1] | Fold Diff. (IC50 against SKY4-48-1) [2] | Fold Diff. (IC50 against SKY4-48-1) [3] | IC50 [4] | Agonist Activity EC50 [5] | Agonist Activity EC50 [6] | Antagonist Activity K [6] | Fold Diff. (IC50 against SKY4-48-1) [4] | Antagonist Activity K [5] | pA2 (antagonist) [5] | Agonist Activity, % stimulation relative to maximum [6] | Agonist, % of NDP-MSH maximal response [6] | Antagonist Ki [6] | pA2 (antagonist) [6] | Fold Diff. (IC50 against SKY4-48-1) [7] | fold increase in agonist potency against SKY5-146-7 [5]
1 | SKY4-48-42, Ac-Arg-Arg-(pI)DPhe-DNal(2')-NH2 (peptide) | 220 nM | 2 fold | -115 fold | 440 nM | 57 nM | > 100000 nM | 400 nM | – | – | – | – | – | – | – | – | –
2 | SKY5-122-1, Ac-DTic-(pI)Phe-DArg-DHis-NH2 (peptide) | 6700 nM | – | – | 800 nM | > 100000 nM | – | – | 64 fold | 63 nM | 7.2 pA2 | 42 % @ 100 µM | 42 % @ 100 µM | > 3100 nM | 5.5 pA2 | -55 fold | –
3 | SKY4-48-23, Ac-Phe-Arg-(pI)DPhe-Tic-NH2 (peptide) | 135 nM | 1 fold | -20 fold | 2500 nM | – | – | – | – | – | – | – | – | – | – | – | –
4 | SKY6-24-2, Ac-His-Arg-(pI)DPhe-Tic-NH2 (peptide) | 83 nM | 1 fold | -52 fold | 975 nM | 40 nM | > 100000 nM | 100 nM | – | – | – | – | – | – | 7 pA2 | – | 12 fold

Stronger by IC50 [1], values ahead:

Row | IC50 [1] | Fold Diff. (IC50 against SKY4-48-1) [2] | Fold Diff. (IC50 against SKY4-48-1) [3] | IC50 [4] | Agonist Activity EC50 [5] | Agonist Activity EC50 [6] | Antagonist Activity K [6] | Fold Diff. (IC50 against SKY4-48-1) [4] | Antagonist Activity K [5] | pA2 (antagonist) [5] | Agonist Activity, % stimulation relative to maximum [6] | Agonist, % of NDP-MSH maximal response [6] | Antagonist Ki [6] | pA2 (antagonist) [6] | Fold Diff. (IC50 against SKY4-48-1) [7] | fold increase in agonist potency against SKY5-146-7 [5] | Substance
5 | 43 nM | -3 fold | -120 fold | 420 nM | – | – | – | – | – | – | – | 32 % @ 100 µM | – | – | – | – | SKY6-24-3, Ac-DNal(2')-Arg-(pI)DPhe-Tic-NH2 (peptide)
6 | 13 nM | -9 fold | -92 fold | 550 nM | 16 nM | > 100000 nM | 16 nM | – | – | – | – | – | 15 nM | – | – | – | SKY4-48-18, Ac-Arg-Arg-(pI)DPhe-Tic-NH2 (peptide)
